From the supplement of paper PMC9112550, “Optimization of the antimicrobial peptide Bac7 by deep mutational scanning” (BMC Biology, 2022)

system: Escherichia coli TOP10; test: shrunken log2 fold change of peptide-encoding DNA abundance (4.5 h post-induction vs induction); higher = less antimicrobial activity (less host growth inhibition); conditions: time post-induction: 4.5 h; library: site-saturation at positions 5, 18, 19, 20
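Also: peptides expressed intracellularly from a pBAD plasmid library in pooled LB shake-flask culture, induced with 0.3% L-arabinose, DNA abundance read by NGS, three biological replicates, DESeq2 with apeglm shrinkage.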

| Sequence | shrunken log2 fold change |
| --- | --- |
| RRIRPRPPRLPRPRPRPLQEPRP | 0.18 |
| RRIRSRPPRLPRPRPRPNQAPRP | -0.169 |
| RRIRIRPPRLPRPRPRPFFIPRP | -0.641 |
| RRIRYRPPRLPRPRPRPELFPRP | -0.0192 |
| RRIRQRPPRLPRPRPRPPAIPRP | -0.0632 |
| RRIRERPPRLPRPRPRPWSMPRP | -0.707 |
| RRIRWRPPRLPRPRPRPMFAPRP | 0.216 |
| RRIRHRPPRLPRPRPRPTYAPRP | -0.127 |
| RRIRQRPPRLPRPRPRPELQPRP | -0.0257 |
| RRIRWRPPRLPRPRPRPWCMPRP | -0.0174 |
| RRIRWRPPRLPRPRPRPGVMPRP | 0.477 |
| RRIRWRPPRLPRPRPRPPQGPRP | 0.226 |
| RRIRPRPPRLPRPRPRPEAVPRP | 0.216 |
| RRIRVRPPRLPRPRPRPSTWPRP | -0.184 |
| RRIRLRPPRLPRPRPRPKWLPRP | 0.139 |
| RRIRHRPPRLPRPRPRPGLQPRP | 0.157 |
| RRIRFRPPRLPRPRPRPYSWPRP | -0.159 |
| RRIRHRPPRLPRPRPRPAQVPRP | -0.0333 |
| RRIRVRPPRLPRPRPRPWAQPRP | -0.365 |
| RRIRLRPPRLPRPRPRPHDGPRP | 0.0171 |
| RRIRGRPPRLPRPRPRPEKSPRP | 0.0928 |
| RRIRVRPPRLPRPRPRPQQRPRP | 0.0774 |
| RRIRTRPPRLPRPRPRPGEIPRP | -0.26 |
| RRIRDRPPRLPRPRPRPNGFPRP | -0.0113 |
| RRIRSRPPRLPRPRPRPDLIPRP | -0.00967 |

| Sequence | shrunken log2 fold change |
| --- | --- |
| RRIRSRPPRLPRPRPRPNLSPRP | -0.425 |
| RRIRSRPPRLPRPRPRPNVIPRP | 0.0185 |
| RRIRPRPPRLPRPRPRPDTRPRP | 0.0199 |
| RRIRWRPPRLPRPRPRPYVHPRP | -1.18 |
| RRIRERPPRLPRPRPRPICLPRP | -0.0493 |
| RRIRIRPPRLPRPRPRPCFQPRP | -0.391 |
| RRIRCRPPRLPRPRPRPFEQPRP | -0.669 |
| RRIRRRPPRLPRPRPRPLCKPRP | 0.167 |
| RRIRVRPPRLPRPRPRPKGHPRP | -0.0413 |
| RRIRLRPPRLPRPRPRPLMMPRP | -0.164 |
| RRIRDRPPRLPRPRPRPFVPPRP | -0.0913 |
| RRIRVRPPRLPRPRPRPHMMPRP | -0.659 |
| RRIRSRPPRLPRPRPRPCYNPRP | -0.513 |
| RRIRYRPPRLPRPRPRPVMKPRP | -0.131 |
| RRIRERPPRLPRPRPRPQPNPRP | -0.084 |
| RRIRIRPPRLPRPRPRPFIVPRP | -0.105 |
| RRIRMRPPRLPRPRPRPGITPRP | 0.133 |
| RRIRPRPPRLPRPRPRPFSHPRP | -0.402 |
| RRIRRRPPRLPRPRPRPLNEPRP | 0.162 |
| RRIRLRPPRLPRPRPRPGTGPRP | -0.0967 |
| RRIRDRPPRLPRPRPRPYTAPRP | 0.0362 |
| RRIRGRPPRLPRPRPRPTLIPRP | 0.337 |
| RRIRKRPPRLPRPRPRPVFEPRP | 0.347 |
| RRIRMRPPRLPRPRPRPRISPRP | 0.395 |
| RRIRARPPRLPRPRPRPFTTPRP | -0.0831 |

| Sequence | shrunken log2 fold change |
| --- | --- |
| RRIRLRPPRLPRPRPRPWSHPRP | 0.00674 |
| RRIRVRPPRLPRPRPRPKYRPRP | -0.0331 |
| RRIRMRPPRLPRPRPRPYRYPRP | -0.133 |
| RRIRRRPPRLPRPRPRPRVMPRP | 0.413 |
| RRIRYRPPRLPRPRPRPCLKPRP | -0.0431 |
| RRIRIRPPRLPRPRPRPRHEPRP | 0.0234 |
| RRIRKRPPRLPRPRPRPWCYPRP | -0.168 |
| RRIRMRPPRLPRPRPRPRKLPRP | 0.857 |
| RRIRGRPPRLPRPRPRPYKMPRP | -0.234 |
| RRIRWRPPRLPRPRPRPWEWPRP | -0.00895 |
| RRIRRRPPRLPRPRPRPRQAPRP | 0.801 |
| RRIRKRPPRLPRPRPRPTCSPRP | 0.281 |
| RRIRNRPPRLPRPRPRPICNPRP | -0.203 |
| RRIRTRPPRLPRPRPRPIFAPRP | 0.408 |
| RRIRRRPPRLPRPRPRPFAIPRP | 0.102 |
| RRIRKRPPRLPRPRPRPQKRPRP | 0.403 |
| RRIRGRPPRLPRPRPRPDQPPRP | 1.01 |
| RRIRVRPPRLPRPRPRPQAWPRP | 0.416 |
| RRIRIRPPRLPRPRPRPKYIPRP | -0.992 |
| RRIRTRPPRLPRPRPRPMMRPRP | 0.933 |
| RRIRTRPPRLPRPRPRPISIPRP | -0.477 |
| RRIRVRPPRLPRPRPRPPALPRP | 0.189 |
| RRIRRRPPRLPRPRPRPREQPRP | 0.803 |
| RRIRSRPPRLPRPRPRPMIWPRP | 0.027 |
| RRIRVRPPRLPRPRPRPTMHPRP | -0.103 |

| Sequence | shrunken log2 fold change |
| --- | --- |
| RRIRRRPPRLPRPRPRPFIVPRP | -0.0553 |
| RRIRQRPPRLPRPRPRPSIKPRP | -0.425 |
| RRIRMRPPRLPRPRPRPNTAPRP | 0.0661 |
| RRIRARPPRLPRPRPRPRYMPRP | -0.365 |
| RRIRGRPPRLPRPRPRPRCVPRP | 0.689 |
| RRIRYRPPRLPRPRPRPWHQPRP | -0.883 |
| RRIRTRPPRLPRPRPRPGLEPRP | 0.198 |
| RRIRTRPPRLPRPRPRPWMAPRP | -0.295 |
| RRIRYRPPRLPRPRPRPNERPRP | -0.0497 |
| RRIRTRPPRLPRPRPRPCAPPRP | -0.142 |
| RRIRQRPPRLPRPRPRPKDWPRP | 0.377 |
| RRIRYRPPRLPRPRPRPIFFPRP | -0.353 |
| RRIRCRPPRLPRPRPRPWCEPRP | -0.349 |
| RRIRRRPPRLPRPRPRPERYPRP | 0.00129 |
| RRIRLRPPRLPRPRPRPNFEPRP | 0.0189 |
| RRIRSRPPRLPRPRPRPPFAPRP | 1.88 |
| RRIRLRPPRLPRPRPRPMHQPRP | 0.136 |
| RRIRVRPPRLPRPRPRPVFAPRP | 0.217 |
| RRIRARPPRLPRPRPRPHQLPRP | 0.086 |
| RRIRCRPPRLPRPRPRPFHSPRP | -0.458 |
| RRIRDRPPRLPRPRPRPYEQPRP | -0.0135 |
| RRIRMRPPRLPRPRPRPKSCPRP | 0.839 |
| RRIRKRPPRLPRPRPRPTHRPRP | 1.15 |
| RRIRCRPPRLPRPRPRPGHIPRP | -0.458 |
| RRIRARPPRLPRPRPRPGEMPRP | 0.228 |

| Sequence | shrunken log2 fold change |
| --- | --- |
| RRIRVRPPRLPRPRPRPPFLPRP | 1.11 |
| RRIRWRPPRLPRPRPRPYNFPRP | -0.58 |
| RRIRGRPPRLPRPRPRPNYTPRP | -0.338 |
| RRIRVRPPRLPRPRPRPMVSPRP | -0.188 |
| RRIRPRPPRLPRPRPRPHSMPRP | -0.408 |
| RRIRCRPPRLPRPRPRPCGKPRP | -0.0972 |
| RRIRRRPPRLPRPRPRPCWAPRP | 0.153 |
| RRIRHRPPRLPRPRPRPACRPRP | -0.141 |
| RRIRHRPPRLPRPRPRPGDIPRP | -0.412 |
| RRIRCRPPRLPRPRPRPTSLPRP | -0.167 |
| RRIRVRPPRLPRPRPRPRQMPRP | 0.117 |
| RRIRMRPPRLPRPRPRPLQSPRP | 2.75 |
| RRIRWRPPRLPRPRPRPTTSPRP | 0.508 |
| RRIRDRPPRLPRPRPRPNFDPRP | -0.0173 |
| RRIRRRPPRLPRPRPRPIKNPRP | 0.278 |
| RRIRMRPPRLPRPRPRPPNMPRP | 0.268 |
| RRIRERPPRLPRPRPRPVRDPRP | 0.337 |
| RRIRRRPPRLPRPRPRPEIHPRP | -0.265 |
| RRIRLRPPRLPRPRPRPRNDPRP | -0.142 |
| RRIRIRPPRLPRPRPRPCQFPRP | -0.395 |
| RRIRRRPPRLPRPRPRPCVTPRP | -0.0627 |
| RRIRVRPPRLPRPRPRPAQGPRP | 0.00544 |
| RRIRFRPPRLPRPRPRPGIYPRP | -0.184 |
| RRIRPRPPRLPRPRPRPCPRPRP | 0.0438 |
| RRIRTRPPRLPRPRPRPFPFPRP | -0.406 |

| Sequence | shrunken log2 fold change |
| --- | --- |
| RRIRARPPRLPRPRPRPNFNPRP | -0.0686 |
| RRIRTRPPRLPRPRPRPDSNPRP | 0.0255 |
| RRIRARPPRLPRPRPRPALGPRP | 0.73 |
| RRIRDRPPRLPRPRPRPLQNPRP | 0.338 |
| RRIRGRPPRLPRPRPRPTIRPRP | 0.432 |
| RRIRGRPPRLPRPRPRPCQEPRP | 0.0738 |
| RRIRPRPPRLPRPRPRPEDYPRP | -0.0172 |
| RRIRWRPPRLPRPRPRPAGHPRP | -0.0472 |
| RRIRFRPPRLPRPRPRPYPDPRP | 0.0764 |
| RRIRRRPPRLPRPRPRPLTCPRP | -0.12 |
| RRIRCRPPRLPRPRPRPIQTPRP | 0.299 |
| RRIRVRPPRLPRPRPRPACQPRP | 0.168 |
| RRIRQRPPRLPRPRPRPIWHPRP | -0.204 |
| RRIRTRPPRLPRPRPRPICQPRP | -0.0148 |
| RRIRERPPRLPRPRPRPMMLPRP | -0.0415 |
| RRIRFRPPRLPRPRPRPVEDPRP | -0.264 |
| RRIRLRPPRLPRPRPRPRGIPRP | -0.0811 |
| RRIRLRPPRLPRPRPRPARCPRP | 0.651 |
| RRIRLRPPRLPRPRPRPEMEPRP | -0.0177 |
| RRIRPRPPRLPRPRPRPLQCPRP | -1.25 |
| RRIRCRPPRLPRPRPRPITCPRP | -0.159 |
| RRIRHRPPRLPRPRPRPQGVPRP | -0.00445 |
| RRIRDRPPRLPRPRPRPRFWPRP | 0.935 |
| RRIRMRPPRLPRPRPRPRQVPRP | 0.388 |
| RRIRLRPPRLPRPRPRPNELPRP | 0.0122 |
